Source: patent US20230314420A1 (Genentech, published 2023)

B1: Trastuzumab coat reagent: recombinant HER2 extracellular domains I, III, IV fused to a murine Fc; domain II is replaced by structurally related domain II of … (Fc fusion)
chain: KYALADASLKMADPNRFRGKDLPVLDQLLEAASTQVCTGTDMKLRLPASPETHLDMLRHLYQGCQVVQGNLELTYLPTNASLSFLQDIQEVQGYVLIAHNQVRQVPLQRLRIVRGTQLFEDNYALAVLDNGDPLNNTTPVTGASPGGLRELQLRSLTEILKGGVLIQRNPQLCYQDTILWKDIFHKNNQLALTLIDTNRSRACHPCSPMCKGSRCWGESSEDCQKLTKIICAQQCSGRCRGKSPSDCCHNQCAAGCTGPRESDCLVCRKFRDEATCKDTCPPLMLYNPTTYQMDVNPEGKYSFGATCVKKCPRNYVVTDHGSCVRACGADSYEMEEDGVRKCKKCEGPCRKVCYGLGMEHLREVRAVTSANIQEFAGCKKIFGSLAFLPESFDGDPASNTAPLQPEQLQVFETLEEITGYLYISAWPDSLPDLSVFQNLQVIRGRILHNGAYSLTLQGLGISWLGLRSLRELGSGLALIHHNTHLCFVHTVPWDQLFRNPHQALLHTANRPEDECVGEGLACHQLCARGHCWGPGPTQCVNCSQFLRGQECVEECRVLQGLPREYVNARHCLPCHPECQPQNGSVTCFGPEADQCVACAHYKDPPFCVARCPSGVKPDLSYMPIWKFPDEEGACQPCPINCTHSCVDLDDKGCPAEQRRAQVTDKKIEPRGPTIKPCPPCKCPAPNLLGGPSVFIFPPKIKDVLMISLSPIVTCVVVDVSEDDPDVQISWFVNNVEVHTAQTQTHREDYNSTLRVVSALPIQHQDWMSGKEFKCKVNNKDLPAPIERTISKPKGSVRAPQVYVLPPPEEEMTKKQVTLTCMVTDFMPEDIYVEWTNNGKTELNYKNTEPVLDSDGSYFMYSKLRVEKKNWVERNSYSCSVVHEGLHNHHTTKSFSRTPGK
notes: also called T-HER2 variant; capture reagent of the trastuzumab ELISA
B2: Pertuzumab coat reagent: recombinant HER2 extracellular domains I, II, III fused to a murine Fc; domain IV (containing the trastuzumab epitope) is depleted (Fc fusion)
chain: KYALADASLKMADPNRFRGKDLPVLDQLLESTQVCTGTDMKLRLPASPETHLDMLRHLYQGCQVVQGNLELTYLPTNASLSFLQDIQEVQGYVLIAHNQVRQVPLQRLRIVRGTQLFEDNYALAVLDNGDPLNNTTPVTGASPGGLRELQLRSLTEILKGGVLIQRNPQLCYQDTILWKDIFHKNNQLALTLIDTNRSRACHPCSPMCKGSRCWGESSEDCQSLTRTVCAGGCARCKGPLPTDCCHEQCAAGCTGPKHSDCLACLHFNHSGICELHCPALVTYNTDTFESMPNPEGRYTFGASCVTACPYNYLSTDVGSCTLVCPLHNQEVTAEDGTQRCEKCSKPCARVCYGLGMEHLREVRAVTSANIQEFAGCKKIFGSLAFLPESFDGDPASNTAPLQPEQLQVFETLEEITGYLYISAWPDSLPDLSVFQNLQVIRGRILHNGAYSLTLQGLGISWLGLRSLRELGSGLALIHHNTHLCFVHTVPWDQLFRNPHQALLHTANRPEDECVRRAQVTDKKIEPRGPTIKPCPPCKCPAPNLLGGPSVFIFPPKIKDVLMISLSPIVTCVVVDVSEDDPDVQISWFVNNVEVHTAQTQTHREDYNSTLRVVSALPIQHQDWMSGKEFKCKVNNKDLPAPIERTISKPKGSVRAPQVYVLPPPEEEMTKKQVTLTCMVTDFMPEDIYVEWTNNGKTELNYKNTEPVLDSDGSYFMYSKLRVEKKNWVERNSYSCSVVHEGLHNHHTTKSFSRTPGK
notes: also called P-HER2 variant; capture reagent of the pertuzumab ELISA
B3: Pertuzumab (antibody, human IgG1, kappa, V domains shown)
VH: EVQLVESGGGLVQPGGSLRLSCAASGFTFTDYTMDWVRQAPGKGLEWVADVNPNSGGSIYNQRFKGRFTLSVDRSKNTLYLQMNSLRAEDTAVYYCARNLGPSFYFDYWGQGTLVTVSS
VL: DIQMTQSPSSLSASVGDRVTITCKASQDVSIGVAWYQQKPGKAPKLLIYSASYRYTGVPSRFSGSGSGTDFTLTISSLQPEDFATYYCQQYYIYPYTFGQGTKVEIKR
notes: also called rhuMAb 2C4; Pertuzumab IV
B4: Vorhyaluronidase Alfa (recombinant human hyaluronidase rHuPH20) (enzyme, UniProt P38567 36-482, looked up)
chain: LNFRAPPVIPNVPFLWAWNAPSEFCLGKFDEPLDMSLFSFIGSPRINATGQGVTIFYVDRLGYYPYIDSITGVTVNGGIPQKISLQDHLDKAKKDITFYMPVDNLGMAVIDWEEWRPTWARNWKPKDVYKNRSIELVQQQNVQLSLTEATEKAKQEFEKAGKDFLVETIKLGKLLRPNHLWGYYLFPDCYNHHYKKPGYNGSCFNVEIKRNDDLSWLWNESTALYPSIYLNTQQSPVAATLYVRNRVREAIRVSKIPDAKSPLPVFAYTRIVFTDQVLKFLSQDELVYTFGETVALGASGIVIWGTLSIMRSMKSCLLLDNYMETILNPYIINVTLAAKMCSQVLCQEQGVCIRKNWNSSDYLHLNPDNFAIQLEKGGKFTVRGKPTLEDLEQFSEKFYCSCYSTLSCKEKADVKDTDAVDVCIADGVCIDAFLKPPMETEEPQIFY
notes: Also the only protein in the two rHuPH20-containing formulation buffers tested as samples; also called rHuPH20-Containing FDC LD Formulation Buffer; rHuPH20-Containing FDC MD Formulation Buffer
B5: PEG-Filgrastim (other, UniProt P09919-2 31-204, looked up)
chain: TPLGPASSLPQSFLLKCLEQVRKIQGDGAALQEKLCATYKLCHPEELVLLGHSLGIPWAPLSSCPSQALQLAGCLSQLHSGLFLYQGLLQALEGISPELGPTLDTLQLDVADFATTIWQQMEELGMAPALQPTQGAMPAFASAFQRRAGGVLVASHLQSFLEVSYRVLRHLAQP
modifications: pegylated; site not stated
notes: Specificity control
B6: Filgrastim (other, UniProt P09919-2 31-204, looked up)
chain: B5 chain
notes: Specificity control

How the values were obtained:
PEG-Filgrastim [1] = biological target: B5; assay: trastuzumab ELISA specificity test
Filgrastim [2] = biological target: B6; assay: trastuzumab ELISA specificity test
[3] = biological target: B4; assay: trastuzumab ELISA specificity test; sample rHuPH20-Containing FDC LD Formulation Buffer
PEG-Filgrastim [4] = biological target: B5; assay: pertuzumab ELISA specificity test
Filgrastim [5] = biological target: B6; assay: pertuzumab ELISA specificity test
[6] = biological target: B4; assay: pertuzumab ELISA specificity test; sample Vorhyaluronidase Alfa
[7] = biological target: B1; assay: trastuzumab ELISA specificity test; sample Pertuzumab IV
[8] = biological target: B2; assay: pertuzumab ELISA specificity test, highest assay concentration, duplicate, OD(405 nm)-OD(490 nm)
[9] = biological target: B1; assay: trastuzumab ELISA specificity test, highest assay concentration, duplicate, OD(405 nm)-OD(490 nm)

B1
binding result (PEG-Filgrastim [1]): no binding
binding result (Filgrastim [2]): no binding
binding result [3]: no binding

B2
binding result (PEG-Filgrastim [4]): no binding
binding result (Filgrastim [5]): no binding
binding result [6]: no binding

B3
binding result [7]: no binding

B4
OD Mean of Replicates [8]: 0.07 OD
OD Mean of Replicates [9]: 0.03 OD

B5
OD Mean of Replicates [8]: 0.07 OD
OD Mean of Replicates [9]: 0.03 OD

B6
OD Mean of Replicates [8]: 0.08 OD
OD Mean of Replicates [9]: 0.04 OD
